Results as given in patent US20230331821A1 (VIR BIOTECHNOLOGY, published 2023).
Read-outs that look alike come from different tables or passages of the source.

Tests used:
[1] = molecular target: T1, SARS-CoV-2 RBD (produced in house in Expi-CHO cells; residues 331-550 of spike) (SARS-CoV-2 BetaCoV/Wuhan-Hu-1/2019, UniProt P0DTC2 331-550); test: ELISA, antigen coated on the plate, OD 405 nm
[2] = molecular target: T1, SARS-CoV-2 RBD (produced in house in …); test: ELISA, antigen coated on the plate, OD 405 nm; remark: listed apart in the source
[3] = molecular target: T2, SARS-CoV-1 RBD (Sino Biological) (SARS-CoV-1, UniProt P59594 306-527); test: ELISA, antigen coated on the plate, OD 405 nm
[4] = molecular target: T2, SARS-CoV-1 RBD (Sino Biological); test: ELISA, antigen coated on the plate, OD 405 nm; remark: listed apart in the source
[5] = molecular target: SARS-CoV-1 Spike (S) protein, strain SARS, on ExpiCHO cells (SARS-CoV (SARS-CoV-1), strain SARS, UniProt P59594 14-1255); test: flow cytometry, ExpiCHO cells expressing SARS-CoV-1 S; % positive cells
[6] = molecular target: T3, SARS-CoV-2 Spike (S) protein, strain BetaCoV/Wuhan-Hu-1/2019, full length (SARS-CoV-2 Wuhan-Hu-1, UniProt P0DTC2 14-1273); test: cell-based or functional assay
[7] = molecular target: T1, SARS-CoV-2 RBD (produced in house in …); test: ELISA, antigen coated on the plate, OD 405 nm; remark: listed apart in the source
[8] = molecular target: T1, SARS-CoV-2 RBD (produced in house in …); test: ELISA, antigen coated on the plate, OD 405 nm; remark: listed apart in the source
[9] = molecular target: T3, SARS-CoV-2 Spike (S) protein, strain …; test: flow cytometry, ExpiCHO cells expressing SARS-CoV-2 S; % positive cells
[10] = molecular target: His-tagged RBD of SARS-CoV-2 (SARS-CoV-2 BetaCoV/Wuhan-Hu-1/2019, UniProt P0DTC2 331-550)
[11] = molecular target: His-tagged RBD of SARS-CoV-1 (SARS-CoV-1, UniProt P59594 306-527)
[12] = molecular target: T1, SARS-CoV-2 RBD (produced in house in …); test: BLI (Octet), antibody on protein A sensors, RBD in solution, global fit
[13] = molecular target: T4, SARS-CoV-1 RBD (Sino Biological) (SARS-CoV-1, UniProt P59594 306-527); test: as above
[14] = molecular target: T3, SARS-CoV-2 Spike (S) protein, strain …
[15] = molecular target: T1, SARS-CoV-2 RBD (produced in house in …); test: ELISA, antigen coated on the plate, OD 405 nm; remark: listed apart in the source
[16] = molecular target: T4, SARS-CoV-1 RBD (Sino Biological); test: ELISA, antigen coated on the plate, OD 405 nm; remark: listed apart in the source
[17] = molecular target: T1, SARS-CoV-2 RBD (produced in house in …); test: ELISA, antigen coated on the plate, OD 405 nm; remark: listed apart in the source
[18] = molecular target: T4, SARS-CoV-1 RBD (Sino Biological); test: ELISA, antigen coated on the plate, OD 405 nm; remark: listed apart in the source

B1: S315 rIgG1-MLNS (antibody, V domains shown)
VH: EVQLVESGGGLVQPGGSLRLSCAASGFTFSNYWMTWVRQAPGKGLEWVANIKQDGSEKYYVDSVKGRFTISRDNAKNSLYLQMNSLRAEDTAVYYCARDLWWNDQAHYYGMDVWGQGTTVTVSS
VL: SYELTQPPSVSVSPGQTARITCSGDAFPNQYAYWYQQKPGQAPVMLIYKDSERPSGIPERFFGSSSGTTVTLTIRGVQAEDEADYYCQSADSSGTVFGGGTKLTVL
- EC50 (read off the curve) [1]: ~0.2 µg/mL
- EC50 (read off the curve) [2]: ~0.2 µg/mL

B2: S110 (antibody, V domains shown)
VH: QVQLVESGGGLVQAGGSLRLSCAASGRTFSSAGMAWFRQAPGKEREFVATSNWNGGDTDYADSVKGRFTISRDNAKNTVYLQMNNLKPEDTAVYYCAAHLQKYGGDYYARIWGQGTQVTVS
- EC50 (read off the curve) [3]: ~0.08 µg/mL
- EC50 (read off the curve) [4]: ~0.08 µg/mL

B3: S310 (antibody, V domains shown)
VH: QVQLVQSGAELKKPGSSVKVSCKASGGTFNSYSFNWVRQAPGQGLEWLGGIIPVLGTSNYAQKFQGRVAVTADEFTTTAYMELSSLRSEDTAVYYCATRTYDSSGYRPYYYGLDVWGQGTPVTVSS
VL: QSALTQPASVSGSPGQSITISCTGTSSDVGSYNLVSWYQQRPGKAPELMIYEVTKRPSGLSNRFSGSKSGNTASLTISGLQAEDEADYYCCSYAGSDTVIFGGGTKVTVL
- EC50 (read off the curve) [5]: ~0.2 µg/mL

B4: SARS-CoV-2 S304 mAb (B cell supernatant) (antibody, V domains shown)
VH: EVQLVESGGGLVQPGGSLRLSCAASGFTFSSYDMHWVRQTTGKGLEWVSTIGTAGDTYYPDSVKGRFTISREDAKNSLYLQMNSLRAGDTAVYYCARGDSSGYYYYFDYWGQGTLLTVSS
VL: DIQMTQSPSSLSAAVGDRVTITCRASQSIGSYLNWYQQKPGKAPKLLIYAASSLQSGVPSRFSGSGSGTDFTLTISSLQPEDFAIYYCQQSYVSPTYTFGPGTKVDIK
- Percent neutralization of infection, dilution 2 [6]: -21%
- Percent neutralization of infection, dilution 6 [6]: 25%
- Percent neutralization of infection, dilution 18 [6]: -22%
- Percent neutralization of infection, dilution 54 [6]: 7%

B5: S304-rIgG1-LS (antibody, V domains shown)
VH: B4 VH
VL: B4 VL
- EC50 (read off the curve) [7]: ~0.1 µg/mL
- EC50 (read off the curve) [8]: ~0.1 µg/mL

B6: SARS-CoV-2 S303 mAb (B cell supernatant) (antibody, V domains shown)
VH: EVQLVESGGGLVKPGGSLRLSCAASGFTFLTYSMNWVRQTPGKRLQWVSAISGSGGATYYADSVKGRFTISRDNSKNTLYLQMNTVTADDTAIYFCARERDDIFPMGLNAFDIWGQGAMVIVSS
VL: DIQMTQSPSTLSASVGDRVTITCRASQSISNWLAWYQQKPGKAPKLLIYKASSLESGVPSRFSGSGSGTEFTLTISSLQPDDSATYYCQQYDTYSWTFGQGTKVEIK
- Percent neutralization of infection, dilution 2 [6]: 6%
- Percent neutralization of infection, dilution 6 [6]: 5%
- Percent neutralization of infection, dilution 18 [6]: 2%
- Percent neutralization of infection, dilution 54 [6]: 12%

B7: S303 rIgG1 (antibody, V domains shown)
VH: B6 VH
VL: B6 VL
- EC50 (read off the curve) [5]: ~0.001 µg/mL
- EC50 (read off the curve) [9]: ~0.4 µg/mL
- Kd [10]: 23.6 nM
- Kd [11]: < 0.001 nM
- Kd [12]: 23.6 nM
- Kd [13]: < 0.001 nM
- EC50 [14]: 0.383 µg/mL

B8: S303-rIgG1-LS (antibody, V domains shown)
VH: B6 VH
VL: B6 VL
- EC50 (read off the curve) [15]: ~0.09 µg/mL
- EC50 (read off the curve) [16]: ~0.03 µg/mL
- EC50 (read off the curve) [17]: ~0.09 µg/mL
- EC50 (read off the curve) [18]: ~0.03 µg/mL

B9: SARS-CoV-2 S308 mAb (B cell supernatant) (antibody, V domains shown)
VH: QVQLVESGGGVVQPGRSLRLSCAASRFTFSSYGMHWVRQAPGKGLEWVAVIWHDGNNKHYGDSVKGRVTISRDNSKNTLYLQMTSLRAEDTAVYYCARAVTTFKGSGRARMRGMDVWGQGTTVTVSS
VL: DIQLTQSPSFLSASVGDRVTITCRASQGINTYLAWYQQKPGKAPKLLIYAASTLQSGVPSRFSGSGSGTEFTLTISSLQPEDFATYYCQHLDTYPFTFGPGTKVDIK
- Percent neutralization of infection, dilution 2 [6]: -46%
- Percent neutralization of infection, dilution 6 [6]: 19%
- Percent neutralization of infection, dilution 18 [6]: 32%
- Percent neutralization of infection, dilution 54 [6]: 16%

B10: SARS-CoV-2 S306 mAb (B cell supernatant) (antibody, V domains shown)
VH: QVQLVQSGAEVKKPGASVKVSCKASTYTFTSFGISWVRQAPGQGLEWMGWITTYSGDTNYAQKFQGRVTMTTDTSTNTAYMELRSLRSDDTAVYYCASDYFDSSGYYHSFDYWGQGTLVTVSS
VL: EIVLTQSPDTLSLSPGERATLSCRASQSVSSYLAWYQQRPGQAPRLLIYDASKRATGIPARFSGSGSGTDFTLTISSLEPEDFAVYYCQQRSNWPPGCSFGQGTKVEIK
- Percent neutralization of infection, dilution 2 [6]: -19%
- Percent neutralization of infection, dilution 6 [6]: 15%
- Percent neutralization of infection, dilution 18 [6]: -9%
- Percent neutralization of infection, dilution 54 [6]: 6%

B11: S306 (antibody, V domains shown)
VH: B10 VH
VL: B10 VL
- EC50 (read off the curve) [5]: ~0.02 µg/mL
